Measurements published in patent US20260355338 (published 2026).

T1: EpCAM on HSC2 cells (human, UniProt P16422)
T1 chain: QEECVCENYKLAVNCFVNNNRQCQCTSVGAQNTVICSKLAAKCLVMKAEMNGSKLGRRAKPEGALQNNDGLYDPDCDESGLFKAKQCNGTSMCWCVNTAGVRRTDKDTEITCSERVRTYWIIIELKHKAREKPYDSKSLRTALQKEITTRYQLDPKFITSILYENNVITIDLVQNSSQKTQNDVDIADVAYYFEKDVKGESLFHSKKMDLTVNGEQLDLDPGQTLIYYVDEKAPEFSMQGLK

T2: human EpCAM-mFc (human)
T2 chain: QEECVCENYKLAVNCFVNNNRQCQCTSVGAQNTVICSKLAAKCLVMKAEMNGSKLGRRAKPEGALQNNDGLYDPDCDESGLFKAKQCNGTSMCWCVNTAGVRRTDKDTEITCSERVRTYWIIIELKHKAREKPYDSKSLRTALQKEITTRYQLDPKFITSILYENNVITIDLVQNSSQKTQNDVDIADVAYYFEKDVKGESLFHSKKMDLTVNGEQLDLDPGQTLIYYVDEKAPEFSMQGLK


Molecular target: T1, EpCAM on HSC2 cells
Experiment: FACS, HSC2 cells, apparent, high end of range

Kd	Binder
0.79 nM	muEpCAM23 (antibody, V domains shown) VH: EVKLEESGPALVKPGASVRISCKASGYTFTNYYIHWVKQRPGQGLDYIGWIYPGNVYIQYNEKFKGKATLTADKSSSTAFMQLSSLTSEDSAVYFCARDGPWFAYWGQGTLVTVSS VL: DIVLTQTPFSNPVTLGTSASISCRSSKSLLHSDGFTYLYWFLQKPGQSPHLLIYQTSNLASGVPDRFSSSGSGTDFTLRISRVEAEDVGVYYCAQNLELPNTFGGGTKLEIK

Molecular target: T1, EpCAM on HSC2 cells
Experiment: FACS, HSC2 cells, apparent, low end of range

Kd	Binder
0.38 nM	muEpCAM23 (antibody, V domains shown) VH: EVKLEESGPALVKPGASVRISCKASGYTFTNYYIHWVKQRPGQGLDYIGWIYPGNVYIQYNEKFKGKATLTADKSSSTAFMQLSSLTSEDSAVYFCARDGPWFAYWGQGTLVTVSS VL: DIVLTQTPFSNPVTLGTSASISCRSSKSLLHSDGFTYLYWFLQKPGQSPHLLIYQTSNLASGVPDRFSSSGSGTDFTLRISRVEAEDVGVYYCAQNLELPNTFGGGTKLEIK

Molecular target: T2, human EpCAM-mFc
Experiment: ELISA

Binder	Kd
EP01-3014 (1361-H) (antibody) chain 1: QVQLVQSGAEVKKPGASVKVSCKASGYTFTNYHIHWVRQAPGQRLEYIGWIYPGNVYIQYNEKFKGRATLTADKSASTAYMELSSLRSEDTAVYYCARDGPWFAYWGQGTLVTVSS chain 2: QGQSGQGPLMTCSDYYTCKNNLGGGSSGGAVGLLAPPGGLSGRSDNIGGSDIVLTQTPLSLSVTPGQPASISCRSSRSLLHSDGFTYLYWFLQKPGQSPQLLIYQTSNLASGVPDRFSSSGSGTDFTLKISRVEAEDVGVYYCAQNLELPNTFGQGTKLEIK	18.2 nM
EP108-3014 (1361-H) (antibody) chain 1: QVQLVQSGAEVKKPGASVKVSCKASGYTFTNYHIHWVRQAPGQRLEYIGWIYPGNVYIQYNEKFKGRATLTADKSASTAYMELSSLRSEDTAVYYCARDGPWFAYWGQGTLVTVSS chain 2: QGQSGQGLTRCTIAHPYCYYNYGGGSSGGAVGLLAPPGGLSGRSDNIGGSDIVLTQTPLSLSVTPGQPASISCRSSRSLLHSDGFTYLYWFLQKPGQSPQLLIYQTSNLASGVPDRFSSSGSGTDFTLKISRVEAEDVGVYYCAQNLELPNTFGQGTKLEIK	58 nM
EP07-3014 (1565-Y) (antibody) chain 1: QVQLVQSGAEVKKPGASVKVSCKASGYTFTNYYIHWVRQAPGQRLEYIGWIYPGNVYIQYNEKFKGRATLTADKSASTAYMELSSLRSEDTAVYYCARDGYWFAYWGQGTLVTVSS chain 2: QGQSGQGHSGCPRLFDRCSAPAGGGSSGGAVGLLAPPGGLSGRSDNIGGSDIVLTQTPLSLSVTPGQPASISCRSSRSLLHSDGFTYLYWFLQKPGQSPQLLIYQTSNLASGVPDRFSSSGSGTDFTLKISRVEAEDVGVYYCAQNLELPNTFGQGTKLEIK	37.6 nM
EP103-3014 (1565-Y) (antibody) chain 1: QVQLVQSGAEVKKPGASVKVSCKASGYTFTNYYIHWVRQAPGQRLEYIGWIYPGNVYIQYNEKFKGRATLTADKSASTAYMELSSLRSEDTAVYYCARDGYWFAYWGQGTLVTVSS chain 2: QGQSGQGMSCVVDRFDRQCPHLGGGSSGGAVGLLAPPGGLSGRSDNIGGSDIVLTQTPLSLSVTPGQPASISCRSSRSLLHSDGFTYLYWFLQKPGQSPQLLIYQTSNLASGVPDRFSSSGSGTDFTLKISRVEAEDVGVYYCAQNLELPNTFGQGTKLEIK	140 nM
EP07-3014 (1361-H) (antibody) chain 1: QVQLVQSGAEVKKPGASVKVSCKASGYTFTNYHIHWVRQAPGQRLEYIGWIYPGNVYIQYNEKFKGRATLTADKSASTAYMELSSLRSEDTAVYYCARDGPWFAYWGQGTLVTVSS chain 2: QGQSGQGHSGCPRLFDRCSAPAGGGSSGGAVGLLAPPGGLSGRSDNIGGSDIVLTQTPLSLSVTPGQPASISCRSSRSLLHSDGFTYLYWFLQKPGQSPQLLIYQTSNLASGVPDRFSSSGSGTDFTLKISRVEAEDVGVYYCAQNLELPNTFGQGTKLEIK	1.5 nM
EP105-3014 (1361-H) (antibody) chain 1: QVQLVQSGAEVKKPGASVKVSCKASGYTFTNYHIHWVRQAPGQRLEYIGWIYPGNVYIQYNEKFKGRATLTADKSASTAYMELSSLRSEDTAVYYCARDGPWFAYWGQGTLVTVSS chain 2: QGQSGQGDCTGYSPSVLPACRVGGGSSGGAVGLLAPPGGLSGRSDNIGGSDIVLTQTPLSLSVTPGQPASISCRSSRSLLHSDGFTYLYWFLQKPGQSPQLLIYQTSNLASGVPDRFSSSGSGTDFTLKISRVEAEDVGVYYCAQNLELPNTFGQGTKLEIK	201 nM

Further lines, results first:

Kd	Binder
34.5 nM	EP02-3014 (1565-Y) (antibody) chain 1: QVQLVQSGAEVKKPGASVKVSCKASGYTFTNYYIHWVRQAPGQRLEYIGWIYPGNVYIQYNEKFKGRATLTADKSASTAYMELSSLRSEDTAVYYCARDGYWFAYWGQGTLVTVSS chain 2: QGQSGQGLSCTHSRYDMHCPHMGGGSSGGAVGLLAPPGGLSGRSDNIGGSDIVLTQTPLSLSVTPGQPASISCRSSRSLLHSDGFTYLYWFLQKPGQSPQLLIYQTSNLASGVPDRFSSSGSGTDFTLKISRVEAEDVGVYYCAQNLELPNTFGQGTKLEIK
1.9 nM	EP04-3014 (1361-H) (antibody) chain 1: QVQLVQSGAEVKKPGASVKVSCKASGYTFTNYHIHWVRQAPGQRLEYIGWIYPGNVYIQYNEKFKGRATLTADKSASTAYMELSSLRSEDTAVYYCARDGPWFAYWGQGTLVTVSS chain 2: QGQSGQGWCPRLFDRPSMGCPTGGGSSGGAVGLLAPPGGLSGRSDNIGGSDIVLTQTPLSLSVTPGQPASISCRSSRSLLHSDGFTYLYWFLQKPGQSPQLLIYQTSNLASGVPDRFSSSGSGTDFTLKISRVEAEDVGVYYCAQNLELPNTFGQGTKLEIK
147 nM	EP107-3014 (1361-H) (antibody) chain 1: QVQLVQSGAEVKKPGASVKVSCKASGYTFTNYHIHWVRQAPGQRLEYIGWIYPGNVYIQYNEKFKGRATLTADKSASTAYMELSSLRSEDTAVYYCARDGPWFAYWGQGTLVTVSS chain 2: QGQSGQGSKPCSYMHPYCFYNSGGGSSGGAVGLLAPPGGLSGRSDNIGGSDIVLTQTPLSLSVTPGQPASISCRSSRSLLHSDGFTYLYWFLQKPGQSPQLLIYQTSNLASGVPDRFSSSGSGTDFTLKISRVEAEDVGVYYCAQNLELPNTFGQGTKLEIK
